The values that follow come from PMC5935067.

In this experiment the target is microtubules polymerised from bovine brain tubulin (bovine), Q6B856. Description: TIRF microscopy, single-molecule dwell-time analysis.

B1: His-CLASP2γ-eGFP-StrepII (full-length human CLASP2γ with C-terminal eGFP) (natural protein)
chain: MAMGDDKSFDDEESVDGNRPSSAASAFKVPAPKTSGNPANSARKPGSAGGPKVGGASKEGGAGAVDEDDFIKAFTDVPSIQIYSSRELEETLNKIREILSDDKHDWDQRANALKKIRSLLVAGAAQYDCFFQHLRLLDGALKLSAKDLRSQVVREACITVAHLSTVLGNKFDHGAEAIVPTLFNLVPNSAKVMATSGCAAIRFIIRHTHVPRLIPLITSNCTSKSVPVRRRSFEFLDLLLQEWQTHSLERHAAVLVETIKKGIHDADAEARVEARKTYMGLRNHFPGEAETLYNSLEPSYQKSLQTYLKSSGSVASLPQSDRSSSSSQESLNRPFSSKWSTANPSTVAGRVSAGSSKASSLPGSLQRSRSDIDVNAAAGAKAHHAAGQSVRSGRLGAGALNAGSYASLEDTSDKLDGTASEDGRVRAKLSAPLAGMGNAKADSRGRSRTKMVSQSQPGSRSGSPGRVLTTTALSTVSSGVQRVLVNSASAQKRSKIPRSQGCSREASPSRLSVARSSRIPRPSVSQGCSREASRESSRDTSPVRSFQPLASRHHSRSTGALYAPEVYGASGPGYGISQSSRLSSSVSAMRVLNTGSDVEEAVADALKKPARRRYESYGMHSDDDANSDASSACSERSYSSRNGSIPTYMRQTEDVAEVLNRCASSNWSERKEGLLGLQNLLKNQRTLSRVELKRLCEIFTRMFADPHGKRVFSMFLETLVDFIQVHKDDLQDWLFVLLTQLLKKMGADLLGSVQAKVQKALDVTRESFPNDLQFNILMRFTVDQTQTPSLKVKVAILKYIETLAKQMDPGDFINSSETRLAVSRVITWTTEPKSSDVRKAAQSVLISLFELNTPEFTMLLGALPKTFQDGATKLLHNHLRNTGNGTQSSMGSPLTRPTPRSPANWSSPLTSPTNTSQNTLSPSAFDYDTENMNSEDIYSSLRGVTEAIQNFSFRSQEDMNEPLKRDSKKDDGDSMCGGPGMSDPRAGGDATDSSQTALDNKASLLHSMPTHSSPRSRDYNPYNYSDSISPFNKSALKEAMFDDDADQFPDDLSLDHSDLVAELLKELSNHNERVEERKIALYELMKLTQEESFSVWDEHFKTILLLLLETLGDKEPTIRALALKVLREILRHQPARFKNYAELTVMKTLEAHKDPHKEVVRSAEEAASVLATSISPEQCIKVLCPIIQTADYPINLAAIKMQTKVIERVSKETLNLLLPEIMPGLIQGYDNSESSVRKACVFCLVAVHAVIGDELKPHLSQLTGSKMKLLNLYIKRAQTGSGGADPTTDVSGQS
modifications: not checked
In turn, B1 had a dwell time at growing microtubule tips, with 10 nM EB1 of 1.8 s; a dwell time of lattice-binding events, with 10 nM EB1 of 0.74 s; a mean dwell time on microtubule tips, without EB1 of 0.67 s; a mean dwell time on the microtubule lattice, without EB1 of 0.49 s. For the same molecule, the tip association rate, with 10 nM EB1 is 5.3e+08 M⁻¹ s⁻¹ and the tip association rate, without EB1 stood at 2.9e+08 M⁻¹ s⁻¹.
